Source: IntAct's records for PubMed 35512704

B1: Mothers against decapentaplegic homolog 4 (Homo sapiens), Q13485 (parent)
chain: MDNMSITNTPTSNDACLSIVHSLMCHRQGGESETFAKRAIESLVKKLKEKKDELDSLITAITTNGAHPSKCVTIQRTLDGRLQVAGRKGFPHVIYARLWRWPDLHKNELKHVKYCQYAFDLKCDSVCVNPYHYERVVSPGIDLSGLTLQSNAPSSMMVKDEYVHDFEGQPSLSTEGHSIQTIQHPPSNRASTETYSTPALLAPSESNATSTANFPNIPVASTSQPASILGGSHSEGLLQIASGPQPGQQQNGFTGQPATYHHNSTTTWTGSRTAPYTPNLPHHQNGHLQHHPPMPPHPGHYWPVHNELAFQPPISNHPAPEYWCSIAYFEMDVQVGETFKVPSSCPIVTVDGYVDPSGGDRFCLGQLSNVHRTEAIERARLHIGKGVQLECKGEGDVWVRCLSDHAVFVQSYYLDREAGRAPGDAVHKIYPSAYIKVFDLRQCHRQMQQQAATAQAAAAAQAAAVAGNIPGPGSVGGIAPAISLSAAAGIGVDDLRRLCILRMSFVKGWGPDYPRQSIKETPCWIEIHLHRALQLLDEVLHTMPIADPQPLD
partner: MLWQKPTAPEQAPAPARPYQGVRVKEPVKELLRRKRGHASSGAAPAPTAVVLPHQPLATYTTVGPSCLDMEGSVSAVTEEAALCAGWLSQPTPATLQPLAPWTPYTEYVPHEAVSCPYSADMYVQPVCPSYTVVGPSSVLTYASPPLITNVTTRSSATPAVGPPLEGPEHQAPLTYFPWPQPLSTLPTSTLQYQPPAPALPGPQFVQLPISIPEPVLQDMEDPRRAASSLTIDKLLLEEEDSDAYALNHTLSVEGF
B2: Mothers against decapentaplegic homolog 4 (Homo sapiens), Q13485 (parent)
chain: B1 chain
partner: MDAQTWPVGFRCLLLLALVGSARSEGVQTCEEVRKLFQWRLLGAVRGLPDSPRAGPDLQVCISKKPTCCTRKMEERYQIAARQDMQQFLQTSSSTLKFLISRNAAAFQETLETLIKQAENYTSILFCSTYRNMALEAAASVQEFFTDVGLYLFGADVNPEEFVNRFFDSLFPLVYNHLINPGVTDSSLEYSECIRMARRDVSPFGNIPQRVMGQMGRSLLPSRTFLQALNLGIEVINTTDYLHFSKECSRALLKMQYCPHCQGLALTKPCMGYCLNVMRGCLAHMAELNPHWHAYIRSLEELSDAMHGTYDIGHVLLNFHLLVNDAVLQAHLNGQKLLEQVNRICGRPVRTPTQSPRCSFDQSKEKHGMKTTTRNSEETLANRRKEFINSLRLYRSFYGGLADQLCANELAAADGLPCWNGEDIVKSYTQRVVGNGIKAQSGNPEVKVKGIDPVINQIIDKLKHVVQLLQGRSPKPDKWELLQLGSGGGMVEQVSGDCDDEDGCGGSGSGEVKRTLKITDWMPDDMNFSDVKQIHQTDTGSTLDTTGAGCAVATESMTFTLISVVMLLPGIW
B3: Mothers against decapentaplegic homolog 4 (Homo sapiens), Q13485 (parent)
chain: B1 chain
partner: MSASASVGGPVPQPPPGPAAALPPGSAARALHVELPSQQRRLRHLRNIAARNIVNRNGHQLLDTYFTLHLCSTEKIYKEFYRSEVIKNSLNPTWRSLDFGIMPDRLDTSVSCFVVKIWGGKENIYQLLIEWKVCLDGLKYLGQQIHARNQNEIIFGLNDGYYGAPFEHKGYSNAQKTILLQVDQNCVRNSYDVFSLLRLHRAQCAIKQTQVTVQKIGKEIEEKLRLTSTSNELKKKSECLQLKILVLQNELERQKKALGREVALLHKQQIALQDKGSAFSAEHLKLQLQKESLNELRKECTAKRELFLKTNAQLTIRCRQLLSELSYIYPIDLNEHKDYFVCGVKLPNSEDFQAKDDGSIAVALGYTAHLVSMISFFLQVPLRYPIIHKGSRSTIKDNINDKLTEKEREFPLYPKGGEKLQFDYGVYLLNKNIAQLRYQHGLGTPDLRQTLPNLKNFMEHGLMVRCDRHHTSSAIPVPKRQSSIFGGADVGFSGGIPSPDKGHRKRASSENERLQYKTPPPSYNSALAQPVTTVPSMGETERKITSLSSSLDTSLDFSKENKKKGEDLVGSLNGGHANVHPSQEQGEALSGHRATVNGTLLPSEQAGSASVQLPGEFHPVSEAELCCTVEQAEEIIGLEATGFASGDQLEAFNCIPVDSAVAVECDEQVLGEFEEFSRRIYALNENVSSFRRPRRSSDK
B4: Mothers against decapentaplegic homolog 4 (Homo sapiens), Q13485 (parent)
chain: B1 chain
partner: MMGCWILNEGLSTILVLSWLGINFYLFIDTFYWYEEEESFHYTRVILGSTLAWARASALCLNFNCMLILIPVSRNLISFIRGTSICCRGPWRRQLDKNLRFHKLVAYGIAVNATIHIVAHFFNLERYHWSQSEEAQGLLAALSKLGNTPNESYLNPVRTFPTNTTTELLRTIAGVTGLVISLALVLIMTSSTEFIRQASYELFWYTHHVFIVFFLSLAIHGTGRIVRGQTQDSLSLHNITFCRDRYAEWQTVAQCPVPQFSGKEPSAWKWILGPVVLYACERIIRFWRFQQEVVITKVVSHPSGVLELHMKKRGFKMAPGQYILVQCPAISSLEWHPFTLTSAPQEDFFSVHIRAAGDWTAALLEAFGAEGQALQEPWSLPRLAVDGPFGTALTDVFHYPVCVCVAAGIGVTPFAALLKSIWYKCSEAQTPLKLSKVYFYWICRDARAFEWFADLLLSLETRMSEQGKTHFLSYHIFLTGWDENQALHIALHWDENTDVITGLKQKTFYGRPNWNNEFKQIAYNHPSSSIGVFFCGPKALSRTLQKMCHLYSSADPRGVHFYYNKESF

Variants of: B1
Details: with obf1_human POU2AF1, Q16633

| Variant | effect of a mutation on the interaction |
| --- | --- |
| G386D | with no effect |

Variants of: B1
Details: with obf1_human POU2AF1, Q16633
Remark: another data set of the same source

| Variant | effect of a mutation on the interaction |
| --- | --- |
| G386D | increasing interaction strength |

Variants of: B2
Details: with gpc5_human GPC5, P78333

| Variant | effect of a mutation on the interaction |
| --- | --- |
| R361C | with no effect |

Variants of: B2
Details: with gpc5_human GPC5, P78333
Remark: another data set of the same source

| Variant | effect of a mutation on the interaction |
| --- | --- |
| R361H | with no effect |

Variants of: B2
Details: with gpc5_human GPC5, P78333
Remark: another data set of the same source

| Variant | effect of a mutation on the interaction |
| --- | --- |
| G386D | with no effect |

Variants of: B2
Details: with gpc5_human GPC5, P78333
Remark: another data set of the same source

| Variant | effect of a mutation on the interaction |
| --- | --- |
| G386D | increasing interaction strength |

Variants of: B3
Details: with uvrag_human UVRAG

| Variant | effect of a mutation on the interaction |
| --- | --- |
| R361H | with no effect |

Variants of: B3
Details: with uvrag_human UVRAG
Remark: another data set of the same source

| Variant | effect of a mutation on the interaction |
| --- | --- |
| R361C | with no effect |

Variants of: B3
Details: with uvrag_human UVRAG
Remark: another data set of the same source

| Variant | effect of a mutation on the interaction |
| --- | --- |
| D351H | with no effect |

Variants of: B3
Details: with uvrag_human UVRAG
Remark: another data set of the same source

| Variant | effect of a mutation on the interaction |
| --- | --- |
| G386D | with no effect |

Variants of: B4
Details: with nox3_human NOX3, Q9HBY0

| Variant | effect of a mutation on the interaction |
| --- | --- |
| G386D | with no effect |

Variants of: B4
Details: with nox3_human NOX3, Q9HBY0
Remark: another data set of the same source

| Variant | effect of a mutation on the interaction |
| --- | --- |
| R361H | with no effect |
